The target of assay [1] is T1, dog PTK7 on dog cancer cell lines (dog, UniProt A0A8I3N574 31-1070).
T1 construct: whole, on cells; Endogenous protein on dog tumour cell lines; also called PTK7 on CMT-U27 and D-17 cells; dog cancer cells
T1 sequence: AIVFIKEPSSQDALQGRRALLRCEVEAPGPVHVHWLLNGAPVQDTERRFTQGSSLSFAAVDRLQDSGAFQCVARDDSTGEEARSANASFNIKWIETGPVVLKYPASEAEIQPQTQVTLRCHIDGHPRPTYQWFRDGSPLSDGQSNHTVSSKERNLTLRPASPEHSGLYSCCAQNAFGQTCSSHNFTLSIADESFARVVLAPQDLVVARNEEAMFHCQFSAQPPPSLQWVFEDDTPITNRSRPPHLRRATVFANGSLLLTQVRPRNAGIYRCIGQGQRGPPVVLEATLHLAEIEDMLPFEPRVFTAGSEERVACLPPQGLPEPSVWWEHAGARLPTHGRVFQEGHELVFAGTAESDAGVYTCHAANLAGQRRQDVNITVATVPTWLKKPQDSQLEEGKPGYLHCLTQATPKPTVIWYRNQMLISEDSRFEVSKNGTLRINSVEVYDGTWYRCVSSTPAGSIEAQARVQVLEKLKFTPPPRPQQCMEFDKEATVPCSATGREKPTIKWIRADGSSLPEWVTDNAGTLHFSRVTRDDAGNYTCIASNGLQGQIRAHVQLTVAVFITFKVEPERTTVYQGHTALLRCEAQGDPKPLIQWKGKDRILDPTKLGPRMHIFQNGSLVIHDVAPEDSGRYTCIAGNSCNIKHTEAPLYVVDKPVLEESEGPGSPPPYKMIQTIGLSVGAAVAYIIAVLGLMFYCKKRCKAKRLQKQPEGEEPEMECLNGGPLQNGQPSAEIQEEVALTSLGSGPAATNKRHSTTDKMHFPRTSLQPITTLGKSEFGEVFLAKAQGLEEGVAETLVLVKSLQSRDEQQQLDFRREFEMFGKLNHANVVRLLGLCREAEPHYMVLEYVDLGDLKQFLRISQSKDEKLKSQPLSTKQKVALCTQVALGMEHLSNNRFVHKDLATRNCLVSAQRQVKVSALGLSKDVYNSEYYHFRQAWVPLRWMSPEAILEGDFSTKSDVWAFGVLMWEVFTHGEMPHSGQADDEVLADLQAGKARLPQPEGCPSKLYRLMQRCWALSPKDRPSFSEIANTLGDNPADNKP
As to the kind of experiment: flow cytometry, D-17 dog cells, Ab 5 ug/mL. The protocol:
The binding activity of anti-PTK7 antibodies to cancer cell lines was verified by flow cytometry. […] Purified anti-PTK7 antibody with a concentration of 5 μg/mL was added to each well and was incubated at 4° C. for 30 minutes. […] The cells were collected, and the mean fluorescence intensity (MFI) was determined. Human IgG1 was used as ISO control.
A general note: In flow cytometry, cells or beads pass a laser one at a time.

Assay [2] deals with T2, His-tagged human PTK7 protein (human, UniProt Q13308 31-704).
T2 construct: Bought protein; also called hPTK7-His; not shown: His tag
T2 sequence: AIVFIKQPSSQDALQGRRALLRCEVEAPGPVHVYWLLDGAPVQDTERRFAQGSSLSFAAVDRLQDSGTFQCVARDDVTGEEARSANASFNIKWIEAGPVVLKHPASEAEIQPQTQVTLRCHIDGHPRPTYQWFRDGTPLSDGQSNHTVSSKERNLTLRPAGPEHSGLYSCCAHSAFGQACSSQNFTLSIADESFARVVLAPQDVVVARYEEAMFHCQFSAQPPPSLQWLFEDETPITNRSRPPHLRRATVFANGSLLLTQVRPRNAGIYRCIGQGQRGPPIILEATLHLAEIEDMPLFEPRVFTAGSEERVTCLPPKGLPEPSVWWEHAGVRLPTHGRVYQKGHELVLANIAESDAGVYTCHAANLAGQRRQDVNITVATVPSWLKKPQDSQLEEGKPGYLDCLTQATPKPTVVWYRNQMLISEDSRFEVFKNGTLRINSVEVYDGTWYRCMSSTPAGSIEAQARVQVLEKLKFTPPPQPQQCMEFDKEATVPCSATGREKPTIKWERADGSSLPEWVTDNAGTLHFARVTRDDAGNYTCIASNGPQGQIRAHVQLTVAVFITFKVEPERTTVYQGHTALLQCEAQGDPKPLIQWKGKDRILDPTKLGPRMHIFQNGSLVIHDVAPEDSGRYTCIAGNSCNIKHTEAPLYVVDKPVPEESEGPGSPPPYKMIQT
As to the kind of experiment: BLI Octet binning on hPTK7-His; competitor 2F5. The protocol:
Relative positions of target protein epitope between a pair of purified anti-PTK7 antibodies were analyzed by Biolayer Interferometry (BLI) using ForteBio Octet system at 30° C. A total of […] purified antibodies were used: 1A7, 1A11, 1F2, 2A5, 2D11, 2F5, 3C4 and 3E6.
1×HBS-EP+ buffer (10 mM 4-(2-hydroxyethyl)-1-piperazineethanesulfonic acid (HEPES), 150 mM NaCl, 3 mM ethylenediaminetetraacetic acid (EDTA) and 0.05% P20, pH7.4) diluted from HBS-EP+ buffer (10×) was used as the running buffer throughout the experiment. His-tagged human PTK7 protein was captured at a flow rate of 10 μL/min, and 200 nM of antibody (Analyte 1) was injected at a flow rate of 30 μL/min to bind the ligand. Another antibody (Analyte 2) was injected under the same conditions to determine whether the binding of different antibodies interfered with each other. The binding time was 300 s for each antibody.
The binding value of each antibody was obtained using Data Analysis HT 12.0. To quantify the interference of one antibody binding to another, a binding ratio was calculated to compare each pair of antibodies. The binding ratio is defined as the binding value of the second antibody (Analyte 2), divided by the binding value of the first antibody (Analyte 1). […] In general, antibody pairs that interfere with each other have the same or overlapping epitopes.
On the technique in general: BLI is a label-free optical method that tracks binding on a fibre tip over time.

B1: 3C4 (antibody, V domains shown)
VH: QVQLEQSRAEVKKPGESLRISCKGSGYSFTSYWISWVRQMPGKGLEWMGRIDPSDSYTNYNPSFQGHVTISADKSISTAYLQWSSLKASDTAMYYCARRDGSYFDFDYWGQGTLVTVSS
VL: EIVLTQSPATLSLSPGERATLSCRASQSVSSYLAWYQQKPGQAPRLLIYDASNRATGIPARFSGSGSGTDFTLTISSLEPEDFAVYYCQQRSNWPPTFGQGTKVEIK
notes: also called anti-PTK7 antibody 3C4
Consider B1, for which the MFI in assay [1] stood at 34600. Also, the binding ratio in assay [2] is 0.86.

B2: 3E6 (antibody, V domains shown)
VH: QVQLVESGAEVKKPGESLRISCRGSGYSFTSYWISWVRQMPGKGLEWMGRIDPSDSYTKYSPSFQGHVTISADKSISTAYLQWSSLKASDTAMYYCARRDGDYFDFDYWGQGTLVTVSS
VL: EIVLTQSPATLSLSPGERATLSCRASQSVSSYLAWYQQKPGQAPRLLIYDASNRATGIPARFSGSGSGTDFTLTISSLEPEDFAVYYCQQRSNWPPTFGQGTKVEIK
notes: also called anti-PTK7 antibody 3E6
B2: the MFI in assay [1] is 86300. In addition, the binding ratio in assay [2] stood at 0.71.

B3: 1F2 (antibody, V domains shown)
VH: QVQLVQSGGGLVQPGGSLRLSCAASGFTFSRYEMNWVRQAPGKGLEWVSYINSIGSAINYADSVKGRFTISRDNAKNSLYLQMRSLRAEDTAVYYCVREDNWNPGYWGQGTLVTVSS
VL: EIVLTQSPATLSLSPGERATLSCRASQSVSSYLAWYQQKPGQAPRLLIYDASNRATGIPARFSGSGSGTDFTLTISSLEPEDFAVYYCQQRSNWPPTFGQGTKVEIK
notes: also called anti-PTK7 antibody 1F2
The molecule B3 showed an MFI in assay [1] of 64100. The binding ratio in assay [2] came to 0.56.

B4: 1A7 (antibody, human IgG1, V domains shown)
VH: QVQLVESGGGVVQPGRSLRLSCAASGFTFSNYGMHWVRQAPGKGLEWVAVIYYDGSNKFYADSVKGRFTISRDNSKNTLYLQMSSLRAEDTAVYYCARDVAPPGSRAEYFHHWGQGTLVTVSS
VL: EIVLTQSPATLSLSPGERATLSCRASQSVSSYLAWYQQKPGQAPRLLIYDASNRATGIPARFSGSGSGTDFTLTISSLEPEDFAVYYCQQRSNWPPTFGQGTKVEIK
notes: also called anti-PTK7 antibody 1A7
In assay [1], B4 had an MFI of 120000. In assay [2], the binding ratio turned out to be 0.07.

B5: 2A5 (antibody, V domains shown)
VH: QVQLVQSGGGVVQPGRSLRLSCAASGFTFSNYGMHWVRQAPGKGLEWVAVIWYDGRNKYYADSVKGRFTISRDNSKNTLYLQMNSLRAEDTAVYYCARDVAPAGSRAEYFQNWGQGTLVTVSS
VL: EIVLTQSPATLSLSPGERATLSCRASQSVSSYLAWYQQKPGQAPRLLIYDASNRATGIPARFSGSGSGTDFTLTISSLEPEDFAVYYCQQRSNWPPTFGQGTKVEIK
notes: also called anti-PTK7 antibody 2A5
The molecule B5 returned an MFI in assay [1] of 95900. In addition, in assay [2], the binding ratio was -0.02.

B6: 2D11 (antibody, V domains shown)
VH: QVQLVESGGGVVQPGRSLRLSCAASGFTFSSYGMHWVRQAPGKGLEWVAVIFYDGSNKYYADSVKGRFTISRDNSKNTLYLQMNSLRAEDTSVYYCARDVAAPGSRAEYFQNWGQGTLVTVSS
VL: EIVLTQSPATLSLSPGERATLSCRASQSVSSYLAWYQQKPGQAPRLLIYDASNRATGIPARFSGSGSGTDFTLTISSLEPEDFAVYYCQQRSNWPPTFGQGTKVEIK
notes: also called anti-PTK7 antibody 2D11
With B6, the MFI in assay [1] amounted to 106000. In assay [2], the binding ratio is 0.14.

B7: 2F5 (antibody, V domains shown)
VH: QVQLVESGGGVVQPGRSLRLSCVASGFTFSNYGMHWVRQAPGKGLEWVAIIYYDGSNKYYADSVKGRFTISRDNSKNTLYLQMNSLRAEDTAVYYCARDVAAAGSRAEYLHHWGQGTLVTVSS
VL: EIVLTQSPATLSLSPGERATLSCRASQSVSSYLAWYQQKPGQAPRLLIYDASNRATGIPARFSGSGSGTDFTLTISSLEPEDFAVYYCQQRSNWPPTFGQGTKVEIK
notes: also called anti-PTK7 antibody 2F5
In assay [1], B7 returned an MFI of 131000. The binding ratio in assay [2] was found to be 0.08.

B8: 1A11 (antibody, V domains shown)
VH: QVQLVQSGPGLVKPSETLSLTCTVSGGSINSYYWNWIRQPPGKGLEWIGYIYYSGSTNYNPSLKSRVTISVDTSKNQFSLKLSSVTAADTAVYYCARDPHDYIRGHFDLWGRGTLFTVSS
VL: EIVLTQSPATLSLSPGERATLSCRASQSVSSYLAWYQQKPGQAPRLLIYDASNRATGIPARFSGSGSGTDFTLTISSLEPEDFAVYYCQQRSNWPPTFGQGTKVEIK
notes: also called anti-PTK7 antibody 1A11
In turn, B8 came in with an MFI in assay [1] of 90600. Moreover, the binding ratio in assay [2] came out at 0.67.

The values are drawn from patent US20260250421A1 (BIOCYTOGEN PHARMACEUTICALS BEIJING, published 2026).
